From US8729232

Legend:
[1] = biological target: S. coelicolor sulfatase motif peptide … with Arg6 substituted by alanine
[2] = biological target: S. coelicolor sulfatase motif peptide … with Leu9 substituted by alanine
[3] = biological target: S. coelicolor sulfatase motif peptide … with Pro4 substituted by alanine
[4] = biological target: S. coelicolor sulfatase motif peptide … with Thr3 substituted by alanine

B1: Streptomyces coelicolor formylglycine generating enzyme (Strep FGE, SCO7548), recombinant (protein)
chain: AVAAPSPAAAAEPGPAARPRSTRGQVRLPGGEFAMGDAFGEGYPADGETPVHTVRLRPFHIDETAVTNARFAAFVKATGHVTDAERFGSSAVFHLVVAAPDADVLGSAAGAPWWINVRGAHWRRPEGARSDITGRPNHPVVHVSWNDATAYARWAGKRLPTEAEWEYAARGGLAGRRYAWGDELTPGGRWRCNIWQGRFPHVNTAEDGHLSTAPVKSYRPNGHGLWNTAGNVWEWCSDWFSPTYYAESPTVDPHGPGTGAARVLRGGSYLCHDSYCNRYRVAARSSNTPDSSSGNLGFRCANDADLTSGSAAE
In the case of B1, the “conversion of cysteine to FGly relative to the wild-type sequence” value [1] is reported as “substitution of Thr3, Pro4, Arg6, or Leu9 with alanine completely abrogated activity”, the “conversion of cysteine to FGly relative to the wild-type sequence” value [2] is reported as “substitution of Thr3, Pro4, Arg6, or Leu9 with alanine completely abrogated activity” and the “conversion of cysteine to FGly relative to the wild-type sequence” value [3] is reported as “substitution of Thr3, Pro4, Arg6, or Leu9 with alanine completely abrogated activity”. For the same protein, the “conversion of cysteine to FGly relative to the wild-type sequence” value [4] was “substitution of Thr3, Pro4, Arg6, or Leu9 with alanine completely abrogated activity”.
